# Test results as given in paper PMC12770985.
# Key:
# [1] = target: Gerd_ePriL, non-catalytic primase subunit PriL (Heimdall group) of Candidatus Gerdarchaeota archaeon B18_G1 (Candidatus Gerdarchaeota archaeon B18_G1); test: SPR; BIACORE, CM5 chip; Gerd_ePriL or Gerd_aPriL1 immobilised, Gerd_ePriS concentration gradient (methods; the legend of Figure 3 tells the reverse); 20 mM Hepes pH 7.5, 500 mM NaCl, 0.005% Tween 20, 30 uL/min, 25 °C
# [2] = target: Gerd_aPriL1, non-catalytic primase subunit PriL (Loki group) of Candidatus Gerdarchaeota archaeon B18_G1 (Candidatus Gerdarchaeota archaeon B18_G1); test: as above
substance,measurement,setting,value
"Gerd_ePriS, catalytic primase subunit PriS of Candidatus Gerdarchaeota archaeon B18_G1 (enzyme)",Kd,[1],2.67 nM
same,Kd,[2],105 nM
